Measurements reported in IntAct's records for PubMed 22981988.

B1: Arfaptin-1 (Homo sapiens), P53367 (parent)
chain: MAQESPKNSAAEIPVTSNGEVDDSREHSFNRDLKHSLPSGLGLSETQITSHGFDNTKEGVIEAGAFQGSPAPPLPSVMSPSRVAASRLAQQGSDLIVPAGGQRTQTKSGPVILADEIKNPAMEKLELVRKWSLNTYKCTRQIISEKLGRGSRTVDLELEAQIDILRDNKKKYENILKLAQTLSTQLFQMVHTQRQLGDAFADLSLKSLELHEEFGYNADTQKLLAKNGETLLGAINFFIASVNTLVNKTIEDTLMTVKQYESARIEYDAYRTDLEELNLGPRDANTLPKIEQSQHLFQAHKEKYDKMRNDVSVKLKFLEENKVKVLHNQLVLFHNAIAAYFAGNQKQLEQTLKQFHIKLKTPGVDAPSWLEEQ
partner: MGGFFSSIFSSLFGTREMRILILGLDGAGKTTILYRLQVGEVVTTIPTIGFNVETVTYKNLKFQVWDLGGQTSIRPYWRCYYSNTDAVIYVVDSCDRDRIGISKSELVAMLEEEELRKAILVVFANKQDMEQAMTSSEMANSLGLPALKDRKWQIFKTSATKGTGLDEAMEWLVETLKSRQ
B2: Arfaptin-1 (Homo sapiens), P53367 (parent)
chain: B1 chain

Variants of: B1
Details: with arl1_human ARL1, P40616

effect of a mutation on the interaction	Variant
with no effect	S132A
disrupting interaction strength	S132D

Variants of: B2
Details: with arf1_human ARF1, P84077
Chain of arf1_human ARF1, P84077 (P84077 whole entry): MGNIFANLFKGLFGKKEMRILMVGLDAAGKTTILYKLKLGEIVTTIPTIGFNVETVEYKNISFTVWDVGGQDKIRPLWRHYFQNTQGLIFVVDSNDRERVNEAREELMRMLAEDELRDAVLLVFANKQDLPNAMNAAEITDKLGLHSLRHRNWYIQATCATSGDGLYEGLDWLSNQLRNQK

effect of a mutation on the interaction	Variant
with no effect	S132A

Variants of: B2
Details: with arf3_human ARF3, P61204
Chain of arf3_human ARF3, P61204 (P61204 whole entry): as the sequence (P84077 whole entry) above, with A6G, F9L, G11S, F13I, S174A, R178K, Q180K counted along it

effect of a mutation on the interaction	Variant
with no effect	S132A
disrupting interaction strength	S132D

Variants of: B2
Details: with arf1_human ARF1, P84077
Remark: another data set of the same source

effect of a mutation on the interaction	Variant
disrupting interaction strength	S132D
